Experimental findings from patent US20140065670A1 are described below.

The target of assay [1] is CEA (carcinoembryonic antigen) (UniProt P06731). In words: competitive ELISA on CEA, competitor anti-CEA monoclonal antibody; bsctDb as culture supernatant. Background: An ELISA detects its analyte on a solid surface through an enzyme-linked reagent.
In the next assay the target is lysozyme (antigen) (UniProt P00698). Kind of assay: competitive ELISA on lysozyme, competitor anti-lysozyme Fab antibody fragment; bsctDb as culture supernatant.

Turning to “D1.3-A5B7 bispecific single chain tetravalent diabody (bispecific antibody)”, in assay [1], the % Inhibition in CEA Competition ELISA was 100%. In the assay with lysozyme (antigen), this substance showed a % Inhibition in D1.3 Competition ELISA of 100%.
